Assay results taken from paper PMC4242836 (The Journal of Cell Biology, 2014).

Molecular target: T1, Snu13p (S. cerevisiae, UniProt P39990 1-126)
T1 sequence: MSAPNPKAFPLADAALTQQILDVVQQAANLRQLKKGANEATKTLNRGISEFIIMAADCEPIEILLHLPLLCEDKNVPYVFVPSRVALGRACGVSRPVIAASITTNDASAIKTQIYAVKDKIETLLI
Test: crystal structure

B1: Rsa1_(238–290) (domain or fragment)
chain: TDEDVKKWREERKKMWLLKISNNKQKHMQEMGIKEDELKSQPSIFKESRKEKQ
- binding result: binds
